The labels stand for the following.
B1: Keratin, type II cytoskeletal 1 (Homo sapiens), P04264 (parent)
chain: MSRQFSSRSGYRSGGGFSSGSAGIINYQRRTTSSSTRRSGGGGGRFSSCGGGGGSFGAGGGFGSRSLVNLGGSKSISISVARGGGRGSGFGGGYGGGGFGGGGFGGGGFGGGGIGGGGFGGFGSGGGGFGGGGFGGGGYGGGYGPVCPPGGIQEVTINQSLLQPLNVEIDPEIQKVKSREREQIKSLNNQFASFIDKVRFLEQQNQVLQTKWELLQQVDTSTRTHNLEPYFESFINNLRRRVDQLKSDQSRLDSELKNMQDMVEDYRNKYEDEINKRTNAENEFVTIKKDVDGAYMTKVDLQAKLDNLQQEIDFLTALYQAELSQMQTQISETNVILSMDNNRSLDLDSIIAEVKAQYEDIAQKSKAEAESLYQSKYEELQITAGRHGDSVRNSKIEISELNRVIQRLRSEIDNVKKQISNLQQSISDAEQRGENALKDAKNKLNDLEDALQQAKEDLARLLRDYQELMNTKLALDLEIATYRTLLEGEESRMSGECAPNVSVSVSTSHTTISGGGSRGGGGGGYGSGGSSYGSGGGSYGSGGGGGGGRGSYGSGGSSYGSGGGSYGSGGGGGGHGSYGSGSSSGGYRGGSGGGGGGSSGGRGSGGGSSGGSIGGRGSSSGGVKSSGGSSSVKFVSTTYSGVTR
partner: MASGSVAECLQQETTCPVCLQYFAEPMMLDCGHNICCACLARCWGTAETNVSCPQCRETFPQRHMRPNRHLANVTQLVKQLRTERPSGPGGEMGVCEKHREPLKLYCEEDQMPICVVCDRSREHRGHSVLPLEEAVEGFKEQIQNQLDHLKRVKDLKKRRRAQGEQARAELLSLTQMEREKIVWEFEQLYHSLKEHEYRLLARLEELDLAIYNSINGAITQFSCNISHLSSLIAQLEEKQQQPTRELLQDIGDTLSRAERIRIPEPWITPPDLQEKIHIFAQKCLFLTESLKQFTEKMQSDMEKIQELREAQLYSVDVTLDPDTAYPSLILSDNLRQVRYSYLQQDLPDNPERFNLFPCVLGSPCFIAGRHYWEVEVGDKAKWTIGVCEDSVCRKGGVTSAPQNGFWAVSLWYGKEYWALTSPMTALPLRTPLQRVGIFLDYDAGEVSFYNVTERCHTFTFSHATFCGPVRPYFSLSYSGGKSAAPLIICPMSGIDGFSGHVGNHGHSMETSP
B2: Cyclin-dependent kinase 4 (Homo sapiens), P11802 (parent)
chain: MATSRYEPVAEIGVGAYGTVYKARDPHSGHFVALKSVRVPNGGGGGGGLPISTVREVALLRRLEAFEHPNVVRLMDVCATSRTDREIKVTLVFEHVDQDLRTYLDKAPPPGLPAETIKDLMRQFLRGLDFLHANCIVHRDLKPENILVTSGGTVKLADFGLARIYSYQMALTPVVVTLWYRAPEVLLQSTYATPVDMWSVGCIFAEMFRRKPLFCGNSEADQLGKIFDLIGLPPEDDWPRDVSLPRGAFPPRGPRPVQSVVPEMEESGAQLLLEMLTFNPHKRISAFRALQHSYLHKDEGNPE

In the first assay the parent is B1. The conditions noted are these: with tri27_human TRIM27, P14373.
In the case of L161P, the “effect of a mutation on the interaction” value is “causing an interaction”.

Variants of B2 are the subject of another assay. The conditions noted are these: with ccnd1_human CCND1, P24385.
Chain of ccnd1_human CCND1, P24385 (P24385 whole entry): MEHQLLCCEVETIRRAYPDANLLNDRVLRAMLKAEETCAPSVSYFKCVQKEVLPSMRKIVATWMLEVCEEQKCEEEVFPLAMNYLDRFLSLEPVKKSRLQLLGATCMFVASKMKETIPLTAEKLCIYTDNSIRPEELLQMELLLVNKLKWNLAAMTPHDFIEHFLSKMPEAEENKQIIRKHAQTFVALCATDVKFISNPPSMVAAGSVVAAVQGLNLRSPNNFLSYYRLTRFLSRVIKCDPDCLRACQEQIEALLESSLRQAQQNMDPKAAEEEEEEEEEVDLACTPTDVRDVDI
Turning to MATSRYEPVAEIGVGAYGTVYKACDPHSGHFVALKSVRVPNGGGGGGGLPISTVREVALLRRLEAFEHPNVVRLMDVCATSRTDREIKVTLVFEHVDQDLRTYLDKAPPPGLPAETIKDLMRQFLRGLDFLHANCIVHRDLKPENILVTSGGTVKLADFGLARIYSYQMALTPVVVTLWYRAPEVLLQSTYATPVDMWSVGCIFAEMFRRKPLFCGNSEADQLGKIFDLIGLPPEDDWPRDVSLPRGAFPPRGPRPVQSVVPEMEESGAQLLLEMLTFNPHKRISAFRALQHSYLHKDEGNPE [R24C], the “effect of a mutation on the interaction” value is recorded as “with no effect”.
On the same count and under the same terms, in the case of MATSRYEPVAEIGVGAYGTVYKAHDPHSGHFVALKSVRVPNGGGGGGGLPISTVREVALLRRLEAFEHPNVVRLMDVCATSRTDREIKVTLVFEHVDQDLRTYLDKAPPPGLPAETIKDLMRQFLRGLDFLHANCIVHRDLKPENILVTSGGTVKLADFGLARIYSYQMALTPVVVTLWYRAPEVLLQSTYATPVDMWSVGCIFAEMFRRKPLFCGNSEADQLGKIFDLIGLPPEDDWPRDVSLPRGAFPPRGPRPVQSVVPEMEESGAQLLLEMLTFNPHKRISAFRALQHSYLHKDEGNPE [R24H] it was “with no effect”.

Variants of B2 are the subject of another assay. The conditions noted are these: with ccnd3_human CCND3, P30281.
Chain of ccnd3_human CCND3, P30281 (P30281 whole entry): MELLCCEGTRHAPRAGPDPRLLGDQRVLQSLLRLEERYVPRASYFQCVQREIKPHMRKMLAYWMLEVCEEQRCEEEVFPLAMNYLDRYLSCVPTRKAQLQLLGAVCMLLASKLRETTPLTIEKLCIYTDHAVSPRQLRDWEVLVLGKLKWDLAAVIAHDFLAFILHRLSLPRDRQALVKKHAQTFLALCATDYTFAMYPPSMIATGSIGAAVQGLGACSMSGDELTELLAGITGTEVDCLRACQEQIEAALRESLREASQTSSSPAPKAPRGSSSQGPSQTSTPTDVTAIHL
Regarding MATSRYEPVAEIGVGAYGTVYKACDPHSGHFVALKSVRVPNGGGGGGGLPISTVREVALLRRLEAFEHPNVVRLMDVCATSRTDREIKVTLVFEHVDQDLRTYLDKAPPPGLPAETIKDLMRQFLRGLDFLHANCIVHRDLKPENILVTSGGTVKLADFGLARIYSYQMALTPVVVTLWYRAPEVLLQSTYATPVDMWSVGCIFAEMFRRKPLFCGNSEADQLGKIFDLIGLPPEDDWPRDVSLPRGAFPPRGPRPVQSVVPEMEESGAQLLLEMLTFNPHKRISAFRALQHSYLHKDEGNPE [R24C], the “effect of a mutation on the interaction” value was “with no effect”.
On the same count and under the same terms, in the case of MATSRYEPVAEIGVGAYGTVYKAHDPHSGHFVALKSVRVPNGGGGGGGLPISTVREVALLRRLEAFEHPNVVRLMDVCATSRTDREIKVTLVFEHVDQDLRTYLDKAPPPGLPAETIKDLMRQFLRGLDFLHANCIVHRDLKPENILVTSGGTVKLADFGLARIYSYQMALTPVVVTLWYRAPEVLLQSTYATPVDMWSVGCIFAEMFRRKPLFCGNSEADQLGKIFDLIGLPPEDDWPRDVSLPRGAFPPRGPRPVQSVVPEMEESGAQLLLEMLTFNPHKRISAFRALQHSYLHKDEGNPE [R24H] it was “with no effect”.

In a further assay the parent is B2. The conditions noted are these: with ccnd2_human CCND2, P30279.
Chain of ccnd2_human CCND2, P30279 (P30279 whole entry): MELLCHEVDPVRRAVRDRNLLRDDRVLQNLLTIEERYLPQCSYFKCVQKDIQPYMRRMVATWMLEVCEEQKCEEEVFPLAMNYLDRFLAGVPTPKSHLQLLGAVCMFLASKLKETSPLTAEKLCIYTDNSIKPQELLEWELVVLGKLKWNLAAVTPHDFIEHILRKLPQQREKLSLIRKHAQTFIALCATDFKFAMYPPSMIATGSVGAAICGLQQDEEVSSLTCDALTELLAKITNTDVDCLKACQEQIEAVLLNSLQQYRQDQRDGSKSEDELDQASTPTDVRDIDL
As to MATSRYEPVAEIGVGAYGTVYKACDPHSGHFVALKSVRVPNGGGGGGGLPISTVREVALLRRLEAFEHPNVVRLMDVCATSRTDREIKVTLVFEHVDQDLRTYLDKAPPPGLPAETIKDLMRQFLRGLDFLHANCIVHRDLKPENILVTSGGTVKLADFGLARIYSYQMALTPVVVTLWYRAPEVLLQSTYATPVDMWSVGCIFAEMFRRKPLFCGNSEADQLGKIFDLIGLPPEDDWPRDVSLPRGAFPPRGPRPVQSVVPEMEESGAQLLLEMLTFNPHKRISAFRALQHSYLHKDEGNPE [R24C], the “effect of a mutation on the interaction” value is reported as “with no effect”.
The same measure, in the same setting: in the case of MATSRYEPVAEIGVGAYGTVYKAHDPHSGHFVALKSVRVPNGGGGGGGLPISTVREVALLRRLEAFEHPNVVRLMDVCATSRTDREIKVTLVFEHVDQDLRTYLDKAPPPGLPAETIKDLMRQFLRGLDFLHANCIVHRDLKPENILVTSGGTVKLADFGLARIYSYQMALTPVVVTLWYRAPEVLLQSTYATPVDMWSVGCIFAEMFRRKPLFCGNSEADQLGKIFDLIGLPPEDDWPRDVSLPRGAFPPRGPRPVQSVVPEMEESGAQLLLEMLTFNPHKRISAFRALQHSYLHKDEGNPE [R24H] it was “with no effect”.

A further assay covers variants of B2. The conditions noted are these: with cdn2b_human CDKN2B.
Consider MATSRYEPVAEIGVGAYGTVYKACDPHSGHFVALKSVRVPNGGGGGGGLPISTVREVALLRRLEAFEHPNVVRLMDVCATSRTDREIKVTLVFEHVDQDLRTYLDKAPPPGLPAETIKDLMRQFLRGLDFLHANCIVHRDLKPENILVTSGGTVKLADFGLARIYSYQMALTPVVVTLWYRAPEVLLQSTYATPVDMWSVGCIFAEMFRRKPLFCGNSEADQLGKIFDLIGLPPEDDWPRDVSLPRGAFPPRGPRPVQSVVPEMEESGAQLLLEMLTFNPHKRISAFRALQHSYLHKDEGNPE [R24C], for which the “effect of a mutation on the interaction” value was “with no effect”.
Regarding MATSRYEPVAEIGVGAYGTVYKAHDPHSGHFVALKSVRVPNGGGGGGGLPISTVREVALLRRLEAFEHPNVVRLMDVCATSRTDREIKVTLVFEHVDQDLRTYLDKAPPPGLPAETIKDLMRQFLRGLDFLHANCIVHRDLKPENILVTSGGTVKLADFGLARIYSYQMALTPVVVTLWYRAPEVLLQSTYATPVDMWSVGCIFAEMFRRKPLFCGNSEADQLGKIFDLIGLPPEDDWPRDVSLPRGAFPPRGPRPVQSVVPEMEESGAQLLLEMLTFNPHKRISAFRALQHSYLHKDEGNPE [R24H], the “effect of a mutation on the interaction” value is listed as “with no effect”.

A further assay covers variants of B2. The conditions noted are these: with cdn2c_human CDKN2C.
Take MATSRYEPVAEIGVGAYGTVYKACDPHSGHFVALKSVRVPNGGGGGGGLPISTVREVALLRRLEAFEHPNVVRLMDVCATSRTDREIKVTLVFEHVDQDLRTYLDKAPPPGLPAETIKDLMRQFLRGLDFLHANCIVHRDLKPENILVTSGGTVKLADFGLARIYSYQMALTPVVVTLWYRAPEVLLQSTYATPVDMWSVGCIFAEMFRRKPLFCGNSEADQLGKIFDLIGLPPEDDWPRDVSLPRGAFPPRGPRPVQSVVPEMEESGAQLLLEMLTFNPHKRISAFRALQHSYLHKDEGNPE [R24C]: the “effect of a mutation on the interaction” value was “disrupting interaction strength”.
For the variant MATSRYEPVAEIGVGAYGTVYKAHDPHSGHFVALKSVRVPNGGGGGGGLPISTVREVALLRRLEAFEHPNVVRLMDVCATSRTDREIKVTLVFEHVDQDLRTYLDKAPPPGLPAETIKDLMRQFLRGLDFLHANCIVHRDLKPENILVTSGGTVKLADFGLARIYSYQMALTPVVVTLWYRAPEVLLQSTYATPVDMWSVGCIFAEMFRRKPLFCGNSEADQLGKIFDLIGLPPEDDWPRDVSLPRGAFPPRGPRPVQSVVPEMEESGAQLLLEMLTFNPHKRISAFRALQHSYLHKDEGNPE [R24H], the “effect of a mutation on the interaction” value is listed as “disrupting interaction strength”.

Variants of B2 are the subject of another assay. The conditions noted are these: with ccnd2_human CCND2, P30279. This is another data set of the same source.
Turning to MATSRYEPVAEIGVGAYGTVYKACDPHSGHFVALKSVRVPNGGGGGGGLPISTVREVALLRRLEAFEHPNVVRLMDVCATSRTDREIKVTLVFEHVDQDLRTYLDKAPPPGLPAETIKDLMRQFLRGLDFLHANCIVHRDLKPENILVTSGGTVKLADFGLARIYSYQMALTPVVVTLWYRAPEVLLQSTYATPVDMWSVGCIFAEMFRRKPLFCGNSEADQLGKIFDLIGLPPEDDWPRDVSLPRGAFPPRGPRPVQSVVPEMEESGAQLLLEMLTFNPHKRISAFRALQHSYLHKDEGNPE [R24C], the “effect of a mutation on the interaction” value is reported as “disrupting interaction strength”.

The variants in the next assay derive from B2. The conditions noted are these: with cdn2b_human CDKN2B. This is another data set of the same source.
With MATSRYEPVAEIGVGAYGTVYKAHDPHSGHFVALKSVRVPNGGGGGGGLPISTVREVALLRRLEAFEHPNVVRLMDVCATSRTDREIKVTLVFEHVDQDLRTYLDKAPPPGLPAETIKDLMRQFLRGLDFLHANCIVHRDLKPENILVTSGGTVKLADFGLARIYSYQMALTPVVVTLWYRAPEVLLQSTYATPVDMWSVGCIFAEMFRRKPLFCGNSEADQLGKIFDLIGLPPEDDWPRDVSLPRGAFPPRGPRPVQSVVPEMEESGAQLLLEMLTFNPHKRISAFRALQHSYLHKDEGNPE [R24H], the “effect of a mutation on the interaction” value is recorded as “disrupting interaction strength”.
